Numbered stars: 1 amine (or outer) side, 2 acyl side, 3 side chain; on linkers, the order of the positions; unused ones are H or OH. Bridge positions count the residues as written; N and C are the ends. Square brackets hold non-standard residues; d marks the D form. Primed or numbered codes have the meaning given here. Ends that are not written are not given here. K(Fl)″ = lysine labelled with carboxyfluorescein; K(Fl) = Lys carrying 5(6)-carboxyfluorescein; TBMB = c1c(C[*:1])cc(C[*:3])cc1C[*:2]; AF488 = AlexaFluor488 label; βAla = NCCC(=O)O; Sar = CNCC(=O)O
T1: Human EphA1 (Human, UniProt P21709 26-547)
T1 construct: extracellular domain; also called EphA1 (Ecto), Human
T1 sequence (looked up): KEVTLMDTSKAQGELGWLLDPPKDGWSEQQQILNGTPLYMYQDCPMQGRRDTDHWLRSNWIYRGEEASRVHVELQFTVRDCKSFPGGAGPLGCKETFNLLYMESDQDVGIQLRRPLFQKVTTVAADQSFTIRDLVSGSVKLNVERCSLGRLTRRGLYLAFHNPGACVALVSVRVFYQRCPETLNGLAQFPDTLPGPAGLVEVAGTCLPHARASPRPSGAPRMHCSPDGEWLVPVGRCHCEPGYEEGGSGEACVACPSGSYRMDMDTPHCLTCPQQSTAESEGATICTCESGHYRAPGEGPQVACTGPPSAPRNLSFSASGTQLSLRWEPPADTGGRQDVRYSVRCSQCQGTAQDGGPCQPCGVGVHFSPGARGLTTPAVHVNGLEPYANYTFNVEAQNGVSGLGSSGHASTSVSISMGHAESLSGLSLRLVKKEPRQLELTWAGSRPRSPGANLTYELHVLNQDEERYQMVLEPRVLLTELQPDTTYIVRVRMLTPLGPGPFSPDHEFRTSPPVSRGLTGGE

T2: rat EphB1 (Rat, UniProt P09759 18-540)
T2 construct: extracellular domain; also called EphB1 (Ecto), Rat
T2 sequence (looked up): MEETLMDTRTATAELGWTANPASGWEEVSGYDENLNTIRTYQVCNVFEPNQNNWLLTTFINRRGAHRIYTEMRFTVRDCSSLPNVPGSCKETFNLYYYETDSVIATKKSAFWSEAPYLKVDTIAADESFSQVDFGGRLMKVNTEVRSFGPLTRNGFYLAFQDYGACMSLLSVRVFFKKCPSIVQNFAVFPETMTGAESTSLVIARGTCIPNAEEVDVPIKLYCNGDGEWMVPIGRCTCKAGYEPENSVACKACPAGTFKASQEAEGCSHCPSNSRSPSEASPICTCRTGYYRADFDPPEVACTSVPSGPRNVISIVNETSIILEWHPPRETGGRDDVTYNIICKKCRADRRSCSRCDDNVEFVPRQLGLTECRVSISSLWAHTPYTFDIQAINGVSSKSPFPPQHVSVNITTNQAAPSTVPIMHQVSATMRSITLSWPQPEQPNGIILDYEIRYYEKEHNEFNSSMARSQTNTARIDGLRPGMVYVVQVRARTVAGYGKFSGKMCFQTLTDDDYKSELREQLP

B1: Compound 12 (peptide)
peptide: ACPWGPAWCPVNRPGCA
modifications: N-terminal Fl-G-Sar5 before the entry (5(6)-carboxyfluorescein, Gly, five sarcosines); three Cys cyclised on TBMB
notes: bicyclic peptide, fluorescent

Each binder was assayed against T1, Human EphA1 (assay: FP direct binding, selectivity).
Description: (§1) The gain used for analysis was determined for each tracer at the end of the 60 minutes where there was no protein in the well. Data was analysed using Systat Sigmaplot version 12.0. mP values were fit to a user defined quadratic equation to generate a Kd value: f=ymin+(ymax−ymin)/Lig*((x+Lig+Kd)/2-sqrt((((x+Lig+Kd)/2)\hat{ }2)−(Lig*x))). “Lig” was a defined value of the concentration of tracer used.

Binder	Kd
ACMNDWLCSLGWTCA[Sar][Sar][Sar][Sar][Sar][Sar]-{K(Fl)} (linker 2-8-14 via TBMB) [Compound 1]	1640 nM

These binders were tested against T3, mouse EphA2 (Mouse, UniProt Q03145 26-538) (assay: FP direct binding, selectivity).
T3 construct: extracellular domain; C-terminal polyHis; also called EphA2 (Ecto), Mouse
Description: as §1

T3 sequence (Q03145 26-538): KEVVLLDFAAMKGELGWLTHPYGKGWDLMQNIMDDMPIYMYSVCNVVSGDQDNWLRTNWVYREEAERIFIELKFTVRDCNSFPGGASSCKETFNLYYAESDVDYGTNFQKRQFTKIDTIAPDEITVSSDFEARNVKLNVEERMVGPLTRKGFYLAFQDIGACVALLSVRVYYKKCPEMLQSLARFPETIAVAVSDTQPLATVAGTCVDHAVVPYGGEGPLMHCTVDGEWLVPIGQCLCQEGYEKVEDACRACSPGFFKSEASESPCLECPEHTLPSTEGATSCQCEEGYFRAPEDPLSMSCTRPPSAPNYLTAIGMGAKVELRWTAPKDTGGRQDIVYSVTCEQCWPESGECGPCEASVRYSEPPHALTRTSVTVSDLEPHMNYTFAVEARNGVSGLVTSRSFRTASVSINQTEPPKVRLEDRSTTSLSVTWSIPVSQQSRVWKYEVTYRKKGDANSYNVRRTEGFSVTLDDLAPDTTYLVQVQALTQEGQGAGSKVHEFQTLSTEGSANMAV

Binder	Kd
ADVTCPWGPFWCPVNRPGCA (N-terminal Fl-G-Sar5 before the entry; three Cys cyclised on TBMB, bicyclic peptide, fluorescent) [Compound 18]	4.02 nM
B1	55.5 nM
{AF488-βAla}-[Sar][Sar][Sar][Sar][Sar][Sar][Sar][Sar][Sar][Sar]H[dD]VPCPWGPFWCPVNRPGCA (linker 15-22-29 via TBMB, bicyclic peptide, fluorescent) [Compound 139]	0.8 nM
ACLVNDDCFYMGLCA[Sar][Sar][Sar][Sar][Sar][Sar]-{K(Fl)″} (linker 2-8-14 via TBMB, bicyclic peptide, fluorescent) [Compound 23]	386 nM

The binders below were run against rat EphA2 (Rat, UniProt D3ZBN3 27-205) (assay: FP direct binding, selectivity).
Description: as §1

Binder	Kd
ADVTCPWGPFWCPVNRPGCA (N-terminal Fl-G-Sar5 before the entry; three Cys cyclised on TBMB, bicyclic peptide, fluorescent) [Compound 18]	1.72 nM
ACPWGPFWCPVNRPGC (N-terminal AlexaFluor488-G-Sar5 before the entry; three Cys cyclised on TBMB, bicyclic peptide, fluorescent) [Compound 67]	26.5 nM
{AF488-βAla}-[Sar][Sar][Sar][Sar][Sar][Sar][Sar][Sar][Sar][Sar]H[dD]VPCPWGPFWCPVNRPGCA (linker 15-22-29 via TBMB, bicyclic peptide, fluorescent) [Compound 139]	0.36 nM

Each binder was assayed against dog EphA2 (Dog, UniProt A0A286R219 28-206) (assay: FP direct binding, selectivity).
Description: as §1

Binder	Kd
ADVTCPWGPFWCPVNRPGCA (N-terminal Fl-G-Sar5 before the entry; three Cys cyclised on TBMB, bicyclic peptide, fluorescent) [Compound 18]	3.57 nM
ACPWGPFWCPVNRPGC (N-terminal AlexaFluor488-G-Sar5 before the entry; three Cys cyclised on TBMB, bicyclic peptide, fluorescent) [Compound 67]	61.4 nM
{AF488-βAla}-[Sar][Sar][Sar][Sar][Sar][Sar][Sar][Sar][Sar][Sar]H[dD]VPCPWGPFWCPVNRPGCA (linker 15-22-29 via TBMB, bicyclic peptide, fluorescent) [Compound 139]	2.17 nM

What follows are binders tested against T2, rat EphB1 (assay: FP direct binding, selectivity).
Description: as §1

Binder	Kd
ADVTCPWGPFWCPVNRPGCA (N-terminal Fl-G-Sar5 before the entry; three Cys cyclised on TBMB, bicyclic peptide, fluorescent) [Compound 18]	1420 nM
